Consider one molecule from article PMC5383425, “Differential CLE peptide perception by plant receptors implicated from structural and functional analyses of TDIF-TDR interactions” (PLoS ONE, 2017).

Holding throughout (experiment): ITC
Background: ITC needs no label: the signal is the heat of the interaction.

For one experiment, the target named is T1, ecdTDR S305A mutant (Arabidopsis thaliana, UniProt Q9FII5 30-642, S305A).
T1 sequence: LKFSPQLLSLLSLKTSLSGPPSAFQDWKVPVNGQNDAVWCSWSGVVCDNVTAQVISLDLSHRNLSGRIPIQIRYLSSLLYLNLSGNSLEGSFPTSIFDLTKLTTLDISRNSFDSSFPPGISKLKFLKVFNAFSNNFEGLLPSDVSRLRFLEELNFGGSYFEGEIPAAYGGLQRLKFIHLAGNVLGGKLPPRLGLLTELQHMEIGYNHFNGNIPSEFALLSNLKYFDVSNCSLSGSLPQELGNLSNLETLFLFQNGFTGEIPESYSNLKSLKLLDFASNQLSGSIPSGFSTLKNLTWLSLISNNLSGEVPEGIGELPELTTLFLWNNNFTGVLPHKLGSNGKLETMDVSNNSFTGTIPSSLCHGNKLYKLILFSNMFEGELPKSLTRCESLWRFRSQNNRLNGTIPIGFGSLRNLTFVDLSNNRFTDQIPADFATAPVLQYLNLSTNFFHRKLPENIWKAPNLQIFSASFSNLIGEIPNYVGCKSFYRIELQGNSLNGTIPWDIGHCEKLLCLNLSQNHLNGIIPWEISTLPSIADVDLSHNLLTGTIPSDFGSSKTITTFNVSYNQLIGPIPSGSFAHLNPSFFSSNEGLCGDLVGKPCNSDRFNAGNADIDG

The target of experiment [1] is T2, ecdTDR F279 alanine mutant (Arabidopsis thaliana, UniProt Q9FII5 30-642, alanine substitution of F279).
T2 sequence: T1 sequence with F250A, A276S

Experiment [2] deals with T3, ecdTDR F279/F281 double alanine mutant (Arabidopsis thaliana, UniProt Q9FII5 30-642, F279 to alanine | F281 to alanine).
T3 sequence: T1 sequence with F250A, F252A, A276S

Another experiment has as its target T4, ecdTDR W353A mutant (Arabidopsis thaliana, UniProt Q9FII5 30-642, W353A).
T4 sequence: T1 sequence with A276S, W324A

Changes are numbered by the printed parent chain. Square brackets hold non-standard residues; d marks the D form. Ends that are not written are not given here. Hyp = O=C(O)[C@@H]1C[C@@H](O)CN1

B1: Tracheary Element Differentiation Inhibitory Factor (TDIF) peptide (peptide)
peptide: HEV[Hyp]SG[Hyp]NPISN
notes: TDIF, the 12-residue CLE peptide processed from CLE41 and CLE44 of A. thaliana; printed as HEV(Hyp)SG(Hyp)NPISN; numbers count on: the 12-residue peptide; CLE44 encodes the same peptide; also called wild type TDIF; wtTDIF; source: synthetic peptide (peptide 2.0)
Turning to B1, the Kd is 455 nM with ecdTDR S305A mutant, 307 nM in experiment [1], 887 nM in experiment [2] and 862 nM with ecdTDR W353A mutant.

The Kd is a measure of binding affinity in units of concentration.
